Test results taken from PMC11237882 (2024).

T1: APBB1IP_1 (Homo sapiens (Human), UniProt Q7Z5R6)
T1 chain: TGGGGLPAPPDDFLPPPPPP

T2: FAT1 (Homo sapiens (Human), UniProt Q14517)
T2 chain: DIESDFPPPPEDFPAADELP

T3: RARA (Homo sapiens (Human), UniProt P10276)
T3 chain: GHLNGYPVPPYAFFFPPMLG

T4: PRRC2B (Homo sapiens (Human), UniProt Q5JSZ5)
T4 chain: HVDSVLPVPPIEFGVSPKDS

T5: PCDH15 (Homo sapiens (Human), UniProt Q96QU1)
T5 chain: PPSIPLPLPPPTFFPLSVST

T6: DSCAM (Homo sapiens (Human), UniProt O60469)
T6 chain: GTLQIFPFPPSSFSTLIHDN


Experiments:
Assay in all cases: BLI (SUMO-peptide on tip, monomeric EVH1)
[1] = target: T1, APBB1IP_1
[2] = target: T2, FAT1
[3] = target: T3, RARA
[4] = target: T4, PRRC2B
[5] = target: T5, PCDH15
[6] = target: T6, DSCAM

| Kd [1] [µM] | Kd [2] [µM] | Kd [3] [µM] | Kd [4] [µM] | Kd [5] [µM] | Kd [6] [µM] | Binder |
| --- | --- | --- | --- | --- | --- | --- |
| > 150 | 98 | 100 | 100 | > 150 |  | HOMER1 (protein) MGEQPIFSTRAHVFQIDPNTKKNWVPTSKHAVTVSYFYDSTRNVYRIISLDGSKAIINSTITPNMTFTKTSQKFGQWADSRANTVYGLGFSSEHHLSKFAEKFQEFKEAARLA |
|  |  | > 150 | > 150 |  | > 150 | ENAH (protein) MSEQSICQARAAVMVYDDANKKWVPAGGSTGFSRVHIYHHTGNNTFRVVGRKIQDHQVVINCAIPKGLKYNQATQTFHQWRDARQVYGLNFGSKEDANVFASAMMHALEVLNS |
